We go through 1 molecule from patent US20110143428A1 (Genentech, published 2011).

Where a chain is given by its changes, count along the chain named.

The target of experiment [1] is T1, VEGF-C C137S.
T1 construct: also called hVEGF-C C137S; human VEGF-C C137S
T1 VEGF-C: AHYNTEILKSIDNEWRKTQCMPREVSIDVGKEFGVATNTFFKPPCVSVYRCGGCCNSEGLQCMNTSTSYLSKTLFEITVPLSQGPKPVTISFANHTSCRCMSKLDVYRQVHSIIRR
Put plainly: SPR, Biacore (IgG1): human IgG captured on CM5 chip, VEGF-C injected, 1:1 Langmuir fit. In general terms: Surface plasmon resonance follows binding to a sensor surface in real time, without labels.

The target in experiment [2] is T2, mature VEGF-C (R&D Systems) (human, UniProt P49767 103-227).
T2 construct: Bought from R&D Systems; also called human VEGF-C matured form (R&D systems)
T2 sequence: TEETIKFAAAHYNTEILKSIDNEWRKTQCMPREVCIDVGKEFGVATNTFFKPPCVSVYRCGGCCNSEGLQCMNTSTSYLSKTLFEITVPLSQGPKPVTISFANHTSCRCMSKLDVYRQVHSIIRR
The experiment is described as above.

Experiment [3] deals with T1, VEGF-C C137S. Put plainly: phage competition ELISA as in paragraph 556 with human VEGF-C C137S as antigen: phage-displayed clone VC4.5, soluble antigen varied, anti-M13-HRP, OD450. Background: ELISA stands for enzyme-linked immunosorbent assay.
A further experiment has as its target T3, hVEGF-C (human, UniProt P49767).
T3 construct: unlabelled; also called human VEGF-C
T3 sequence (VEGF-C, looked up): T2 sequence
In words: phage competition ELISA: phage-displayed clone VC4.5 incubated with increasing soluble hVEGF-C, unbound phage captured on hVEGF-C coated plate, anti-M13-HRP, OD450.

Experiment [4] deals with T1, VEGF-C C137S. Put plainly: competition ELISA: three-fold serial dilutions of VC4.5 IgG incubated 2 h on hVEGF-C C137S coated plate (5 ug/ml), then VC4.5 phage for 15 min, anti-M13-HRP, OD450 in %; competitor: VC4.5 phage.
The target of experiment [5] is T4, biotinylated human VEGF-C (human, UniProt P49767 112-227, limits assumed, biotin conjugated (site not stated)).
T4 construct: Panning used the matured form from R&D Systems; also called biotin conjugated VEGF-C; biotinylated VEGF-C
T4 sequence: T1 VEGF-C with S26C
In words: receptor blocking ELISA: fixed biotin-VEGF-C incubated 2 h with serial dilutions of IgG, unbound VEGF-C captured on immobilized VEGFR3-Fc, streptavidin-HRP, OD450; blocked interaction VEGF-C/VEGFR3. The value stands in brackets after the curve's name in the legend box; the quantity is not named on the sheet, the value agrees with the midpoint of the curve.

B1: anti-VEGF-C antibody hVC4.5 (hIgG1) (antibody, V domains shown)
VH: EVQLVESGGGLVQPGGSLRLSCAASGFTFTDNWIHWVRQAPGKGLEWVAVISPYSGATYYADSVKGRFTISADTSKNTAYLQMNSLRAEDTAVYYCARDADYKYAFWAFDYWGQGTLVTVSS
VL: DIQMTQSPSSLSASVGDRVTITCRASQDVSTAVAWYQQKPGKAPKLLIYSASFLYSGVPSRFSGSGSGTDFTLTISSLQPEDFATYYCQQSYTTPPTFGQGTKVEIKR
notes: Tested as human IgG1; also called VC4.5 human IgG1 form; human backbone anti-VEGF-C antibody
In the case of B1, the figures for the Kd (with VEGF-C C137S [1]; in experiment [2]) were 1.1 nM and 140 nM, respectively. Also, the IC50 (commonly the concentration that gives 50% inhibition) with VEGF-C C137S [3] worked out at 5.4 nM; in the experiment with hVEGF-C, 1.7 nM; in experiment [5] it was 0.54 nM. Moreover, the “IC50 (read off the curve)” value with VEGF-C C137S [4] was roughly 7 nM.
